{"source": "patent US20030087411", "system": "DAKAR-FLAG fusion protein (murine DAKAR residues 1 to 786 fused to FLAG)"}
{"substance": "purified recombinant active caspase 8 (Pharmingen)", "values": [{"measurement": "cleavage products on SDS-PAGE / Western blot after in vitro incubation with the caspase", "value": "incubation of DAKAR with 100 ng caspase 8 resulted in the formation of a 22 kDa cleavage product"}]}
{"substance": "purified recombinant active caspase 3 (Pharmingen)", "values": [{"measurement": "cleavage products on SDS-PAGE / Western blot after in vitro incubation with the caspase", "value": "in vitro incubation of DAKAR with 100 ng caspase 3 resulted in formation of approximately 40 and 45 kDa cleavage products"}]}
